Source: publication PMC10953402, “Structure and Function of the α‐Hydroxylation Bimodule of the Mupirocin Polyketide Synthase” (Angewandte Chemie (International Ed. in English), 2023)

B1: Fre (enzyme, E. coli, UniProt P0AEN1 1-233, looked up)
chain: MTTLSCKVTSVEAITDTVYRVRIVPDAAFSFRAGQYLMVVMDERDKRPFSMASTPDEKGFIELHIGASEINLYAKAVMDRILKDHQIVVDIPHGEAWLRDDEERPMILIAGGTGFSYARSILLTALARNPNRDITIYWGGREEQHLYDLCELEALSLKHPGLQVVPVVEQPEAGWRGRTGTVLTAVLQDHGTLAEHDIYIAGRFEMAKIARDLFCSERNAREDRLFGDAFAFI
notes: NAD(P)H:flavin oxidoreductase Fre of E. coli (GenBank M61182); Purified as the expected dimer; also called oxidoreductase Fre; E. coli Fre; source: E. coli, overexpressed, purified
B2: MupA (enzyme, Pseudomonas fluorescens, UniProt Q9AH80 1-369, looked up)
chain: MSVEQLLGLGVTNAARAPRQPAFSLLFFSDVREDISASEKYEFARSLTLFGDAQGFEAVYFPERHFHEFGAIYPDSAVMAASLIPQTRHIRFRTAGISLPLHHPARVVESWSMNDVLSGGRVDLGFGSGWSRPDFLLAPHAYEDRREVMWQRIEQVRRLWAGERLSFPGPGGDPVSVVTFPRPLQTSLNVWILVAQNTESFIAAGKAGFNVFTMLYGIDLPDLAEKIGLYRQARRDAGFDPASGRVTLMLHTLVGPDSAWVRRAVEAPFKDYIRSSLVAHMKARATPDGRPLDATEQENVLQYAFERYYETGALFGTVDEVRYRVGQVLETGVDEIACLMDFGVDYAVVHQSLPYLEQLVASFQERSAQ
notes: MupA, predicted FMNH2-dependent monooxygenase of the mupirocin biosynthetic gene cluster of Pseudomonas fluorescens NCIMB 10586; Dimer by SEC, dimer of dimers above 2 mg/ml; Used unlabelled in the NMR titrations; they may stand in the Supporting Information; also called flavin-dependent monooxygenase MupA; FMO; source: cloned, over-expressed and purified to homogeneity

Columns and labels:
[1] = target: the molecule itself; experiment: not stated; purification of recombinant Fre (Figure S6); how the dimer was shown is not told
[2] = target: the molecule itself; experiment: SEC; purified MupA alone, at the lower concentrations (not above 2 mg/ml)
[3] = target: the molecule itself; experiment: SEC; purified MupA alone, at higher concentrations (>2 mg/ml)

Row | Protein | stoichiometry N [1] | stoichiometry N [2] | stoichiometry N [3]
1 | B1 | 2 | – | –
2 | B2 | – | 2 | 4
